Laboratory results: the DeepSol protein solubility set

Assay: soluble on expression in E. coli; label from the status in PepcDB or PDB records

Row | Sequence | soluble on expression in E. coli
1 | MGSDKIHHHHHHMRRQLNGQMFVWLHVFACAARHLSFTRCAEELHITPGAVSQQMRQLEERLGYRLFLRRARGVELSAEGQRLAQTVAEAYGSIEAELLRLDAGEIRGTLRVRSIPSFLAKWLTPRLPRFQQRYPDIELRLVAEDSAQALTPGDFDLAIDLNDGSYPGMLSTPLLDEQIFPVCSPALLRGRPPLHGPADLAHYPLLHDITAWRGSSEYAEWEFYLEGIGAAGLDVRRGHTFNRNHLTIEAAIAGIGVAIARRTLLNDELERGALIVPFGVPIANHKRYVVHYPPGGLNQPGARAVHDWLVEEARGFRVLHPLNKE | not soluble
2 | MKTLPVLPGQAASSRPSPVEIWQILLSRLLDQHYGLTLNDTPFADERVIEQHIEAGISLCDAVNFLVEKYALVRTDQPGFSACTRSQLINSIDILRARRATGLMTRDNYRTVNNITLGKYPEAK | soluble
3 | MSLNASAPIPLNETQRLLRIRELCVLENTSDDVFDEIVAMTADFFQTPIALISIVDEHRQWFRARVGLNAQETPRNVSFCAYTILSDSLFEIPDATLDDRFMNNSLVTGHPDIRYYAGAPLITDDGIALGSLCVIDTKPREPMSEHQMQMLKRFASLVMKRIVSLRLSCFIDQPTGLYNRSRLQEDIHQALLSSVDYQLVVVDMITSAFLNDIVKALGYSFSQDLVTEIKSRLEHLLPPTCSLYKVSPTRFGFLLPGERAPDHLFRTILEDFETPVECRGIPVQMQVGLGVVTLNRDPTEEQDWMRMVISAADDARDRNLGWAMYEPHFDAAQQRAFKLLSSLTSAVHSHDQLRLVYQPRIDLASGLCTSVEALLRWNHPTLGPIGPAEFVPLAEKTALMRPLSLWVLTSAIEQAARWQQQGFDFRIAINVTPEDLTGPAFTDRMIRLLGQHKIDPTRFELEFTEGALMHNPAEVRHQLERMRQMGMDVAIDDFGTGYSNWNYLRQLPATTVKLDQSLIRNLASDKTDQRLVKALIGLAKKLGYCVVAEGIETDEIRRLVKQWGCDEGQGYLISKPMEADAVLNWLGPDRRLQTVTEAAEAAVIRDKRLEGHHHHHH | soluble
4 | YRNSIEGLIEKGIRDEEFIPYYQPIVDSRTQEVVGYEVLLRWQKGHQLVPPSLFISAAEDSGLVVKITNQLIQQVHRDLAQIPAPRWVSINVVADHLEQHHLTHLLEELHWPYSERLKFELTERVPIKAMTQAQEEVFYLLKKGYQFKIDDFGTGYGGFAYLQNLQISSIKIDKMFVDTINTHDVKISVLDSIIASAQGGNIEVIAEGVEHQYQVDYLAERNVFWIQGYFYAKP | not soluble
5 | MDTKPPIERSMYIELRTSLEMFRGDLVDLEALANASRDALDQLPFVPKGAKTDHDEAHPNPDPESALRSGRLDSLVCATASAAQSALVTCVKLIDWAYEYEPDDEDDDDDDMVPMDDIDDDDDDDDDDENGGSSGANGGGSNGSGRSGPPDDNGAGAASASVADEFANARPSRGGIVLDLPTRASTTDGPVDAR | not soluble
6 | MGSDKIHHHHHHACNTSPREPKAMEANDGSVTTVESNGNKLTVCDLSAVKDTIEVPLSEFVEDCRIVRFETSEEAYFKAWFINATDKHIGIRQGNQDVFKLFDRDGKFLYNVGSVGSGPGEYDTTLYDECIDEKNGHIFFTPFVGKRIMMYDINGQWIKDIPLPMQINKAKIWVNEDGSLSVVHMPFEEGEPLAFRVDTEGNILNQIPATAATKVMNFDGEVFSYRNCGDFDFFHTGIDTLFTYDPAGNKLLPKFTMTFPNMNEKPIHLYYRLPHHFIVTYWGNKGEGGGDVLVDTEKNASSYFRLVNDFYGNLPIPAPGHSFYRGYFIQSLEPGQLIEKIEKQIASGKCSGQDEQKLKELAATLTENDNNVLFIGKVKK | not soluble
7 | SEQSSPGFRQTHLQDLSEATQDVKEENHYLTPRSVLLELDNIIASSDSGESIETDGPDQVSGRIECHYEPMESYFFKETSHESVDSSKEEPQTLPETQDGDLHLQEQGSGIDWCLSPADVEAQTTNDQKGSASLTVVQLSILINNIPDESQVEKLNVFLSPPDVINYLALTEATGRICVSQWEGPRRLGCIFCHGDHLLAVNDLKPQSLEEVSLFLTRSIQKEKLKLTIGRIPNSETFHAASCMCPSKCQSAAPSQLDKPRLNRAPKRSPAIKKSQQKGARE | soluble
8 | GSHMLEVLTQKHKPAESQQQAAETEGSCNKKDQNECKSPCKWHNDAENKKCTLDKEEAKKVADETAKDGKTGNTNTTGSS | soluble
9 | MGSDKIHHHHHHMRYDIVIIGGAIVGSSIAYYLREEGFSGSIALIERDPQFAHAATTLSMASIRQQFSIPENIRLSQFTLKLFRRLKETFGTDADIGFREGGYLILAGENGLPVLKANHDAQVAEGADIVLEDAEQLTRRFAWLSAEGISAGAYGRTGEGWFDAHAMLMLFRKALRDKKIDFIAASVTGIARDGDRVTGVSLDNGQTLEAGIVVNAAGPNAGKVAALAGLALPVEPRKRNVFVFEAREKYADMPLLVDPSGIYVRPEGSVYLTGGAEPEEGDGPADPSDFEVDWPLFEEVIWPVLATRIPAFEAIKATRAWAGHYDYNTLDQNAVIGPHPEVGNFIFANGFSGHGLQQAPAVGKALAEFLVHGGYRTIDCSAFGYGRVAEGRAFRELNVI | not soluble
10 | MGSSHHHHHHSSGLVPRGSHMQKPIKKDPNRYHGEKMTEFSEWFHNILEEAEIIDQRYPVKGMHVWMPHGFMIRKNTLKILRRILDRDHEEVLFPLLVPEDELAKEAIHVKGFEDEVYWVTHGGLSKLQRKLALRPTSETVMYPMFALWVRSHTDLPMRFYQVVNTFRYETKHTRPLIRVREITTFKEAHTIHATASEAEEQVERAVEIYKEFFNSLGIPYLITRRPPWDKFPGSEYTVAFDTLMPDGKTLQIGTVHNLGQTFARTFEIKFETPEGDHEYVHQTCYGLSDRVIASVIAIHGDESGLCLPPDVAAHQVVIVPIIFKKAAEEVMEACRELRSRLEAAGFRVHLDDRDIRAGRKYYEWEMRGVPLRVEIGPRDLEKGAAVISRRDTGEKVTADLQGIEETLRELMKDILENLRTRAWERMESEIREAETLEEASRIVDEKRGIISFMWCGEEECGMDVEEKVRVDILGIQEEGSGTCINCGREAPYRAYLARTY | soluble
11 | MRKISVFDTTLRDGEQSAGVNLNFEEKMEIAKQLERLGVDIIEAGFPASSQGDFQSVKAIAETVKGSSVTGLARSVQKDIDAAWEALKSAEEPRIHLFIATSPIHMEHKLRMTPEQVIEKAVESVKYAASRFKHVQWSAEDASRSDFPFLAQIIEAVIQAGATVINLPDTVGYTTPQEIKRMFQYMKQNVPSIDKVSLSTHNHDDLGMAVANSLAAIQGGADQVECTINGIGERAGNASLEEIAVALNIRKDHYETETGLILKEIKRTSSLVSKLTGMVVPNNKAVVGANAFAHESGIHQDGVLKNKQTYEIITPEMVGVSSNSMVLGKHSGRHAFKTKVQELGFTGTDEQLNNIFKAFKDLADKKKEITEDDLFALMTEQTVGGETNHYELQTLQVNYGSNLTNTATITMKLPSGEVAEEAATGSGSVEAIYNTLERLLDAPVKLLDYRIQSITGGRDALADVYVQMDYQGVVSSGRGTAHDVLEASAKAYLNAVNRTINRKKYAEVYGSKVEV | soluble
12 | MGSDKIHHHHHHMPPLSIPADQYLRLSDKSQVRCYRSHFSDRMEMLAPPKNVAAYLDHHQGWFQRCAAPMEVKALDDQSYLLTLGRFGNFGFEVEPCIGLKLLPQQQGLYQIINVDLTHQDLPLCDHYDVDFKAGLKLEPSETEASNTVQQTTIVNWDLDLSVWIQLPKVITLLPDGLVQTSGDQLLRQVVRQISRRLTWKVQEDFHATHGLTCPPRRHAAF | not soluble
13 | MSKNDHRITHNKSDKDNLDDDFSLFRDEVKGVKKLRQDTILHAPNRNPKQKEIRRTEREASDNDFYFSDEFMPHLTDEGPTRYARSDVSKYEVKRLRRGVYVPDVFLDMHGMTQQEAKRELGAMIAYCLKENVHCACVQHGIGKHILKQNVPLWLAQHPDVLAFHQAPLEFGGDGALLVLLSIPEK | not soluble
14 | MRHLLDFQGWSRTEVESLLDTARVMREVLERPIKKVPALQGFTVATVFFEPSTRTRISFELAARRMSADVVSFAAQTSSLQKGESYKDTLLTLEAMGVDAYVIRADSAGVPHQATRWVKGAVINGGDGRRAHPTQALLDAYTLLEALGTLEGKKVAIVGDILHSRVARSGAELLSLLGAQVFCAGPPSLLPQSLPGAHLTPRLEEALEEADAVMVLRLQKERMEAGLVHLEDYVARYQVTEKRLALAKPQAPLLHPGPMNRDVELEGTLADSARSLVNRQVQNGVAVRMAALYHLLVGKEKA | soluble
15 | SLIDTHCHLDLYPKPGTVIAEADKRGMFVIAVTTTPKAFLGNIRMTEGKKRIRVAVGLHPELVAERHREVEDVCKLMAKTKYVGEIGIDGSPPHKSSIKLQTEVFARFLTRASELGGKVLSIHSRGAAALVLDEIERNGHGTLPILHWFSGSKQQVERAAKLGCWFSVGPAMLRSRKGRELLASMPRHRLLTETDGPFATDVDRPLMPWDVSMALPAIADVWGTTPVGVDQVVSANFRELINATEQGRAAAKLVGNC | not soluble
16 | MGSDKIHHHHHHMSTKSLPMDQILNELRSYDRSEHILNHGFDLGTAWWKIELRKAAWTPSGPLAEPTESVRIDRRRLFGMASEIHTGDIDPVDFTLSVVLWGSGSSRRNNRARIQSIVDVEGRVALRQALELASTDAEASFAAFRTNGRNAFAYLGPAFFTKLMYFAGAGSKSHDAYIVDHRVLQTLSRTPAGAGLRAIHNYGPNTYRRACSALEVIASAARVSGCPELADCTGDLVERWAFDVAGAS | not soluble
17 | SDERDVLWVGVCAMPKKVESEPMQRILAALTSSRVAHFEPMIFDAKTLFERPIHKWPVCDALIAFHSEGFPLERAIAYAELRRPYCLNGLREQRMLLDRSKVYEVLARERVPVPRHIVVRHDGADVGRTDTRFVEHDDYIEYCGERLFKPFVEKPIDAEDHRVCIYYARPLYGRRRLFRKTANQSSVFEPGWRRVRREGAFIYEEFIPSEHQSDIKVYAVGPEYAYAERRKSPVVDGIVERNAHGKELRFPVELSTAERCVAATITAAFRQFVCGFDLIRHADGNAFYVNDVNGFSFVKGSQSYYESCGRILAEHLARECARSAAVDGE | soluble
18 | MGSDKIHHHHHHMKVAVIGAKGQLGTDLVDVLKEEFTVYPLTHEDVDVAVSESLEVLRDIHPDVIINTAAYVRVDDAENHAEKAFAVNAIGALNVARISSEIDAVNIYISTDYVFDGEKGEPYVETDKPNPINVYGASKYAGEILTKNYSEKHYVIRVASLYGKAGASGKGGNFVNWVVDMARKGQELRIVADQFMSPTYTKDVALAVREFLKLRPDYGIYHMVNDGYCSWFEFTKAIFEILDWDVEIQPIKSSELNRLARRPAFSALQNYKLERIGIKMRHWREALRDYLAEKGLV | not soluble
19 | GILRTQHTIRDSELNIKNSKMSDSVNARESNVYMAKLAEQAERYDEMAKYMKDVVEARQESEELTVEERNLLSVAYKNAVGSRRSSWRIISSVEQKEHSRNAEDASKMCGKYRSKVEAELTDICNDILTMLDKHLIPTATSPDSKVFYFKMKGDYHRYISEFSTGDSKQSSAEDALKAYKDATVVAKDLEPTHPIRLGLALNFSVFHYEILNEPRAAIDMAKEAFEMAIEQLDKLSEDCYKDSTLIMQLLRDNLTLWTAD | soluble
20 | MAHHHHHHMGKYAVVVIGPAGSGKSTLCTVVAEHYATKGRSTHICNFDPAAEDLPYDPSIDIRELISLEDAMEGKGLGPNGGLVFCMEYLLGQGEVWLCDQLGDHEEDFIIVDMPGQLEVLSHIPAVPGFVRLLERSGFHVVVLFLLDALAATADAGKFVSGCTFALSCMVCFECPFMNVLTKCDLLPPAIREEALDHFCTCDFDYLNTKPLPERWREMVRTLAAVIFDFNLVTFRPMDNTDVAYVGNLCYLIDEALQVVDDAEVNDRDLPDASEAGEAVEDTMDWKHY | not soluble
